{"source": "paper PMC10715030", "key": {"[1]": {"target": "c-type human lysozyme (human) (UniProt P61626)", "sequence (P61626 19-148)": "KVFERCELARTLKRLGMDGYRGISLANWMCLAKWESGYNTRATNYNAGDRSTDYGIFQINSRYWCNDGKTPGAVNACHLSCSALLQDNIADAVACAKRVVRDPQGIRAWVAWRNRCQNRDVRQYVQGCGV"}, "[2]": {"target": "AP205 capsid virus-like particle displaying the complementary Catcher (SpyCatcher-VLP) (not stated | Acinetobacter phage AP205)", "experiment": "SDS-PAGE of covalent Tag/Catcher coupling (densitometry); N-SliC or C-SliC mixed with complementary SpyCatcher VLPs at a molar ratio of 1:3, 2 h, room temperature, PBS; covalently coupled band at ~45 kDa; coupling efficiency by densitometry (ImageQuant)"}}}
{"substance": "SliC with the N-terminal SpyTag (N-SliC)", "values": [{"measurement": "lytic activity of HL (2.5 µM) on DQ lysozyme substrate (EnzChek Lysozyme Assay Kit), N-SliC 0-5 µM, 30 min at 37°C before substrate", "setting": "[1]", "result": "> 1.25", "unit": "µM"}, {"measurement": "cVLP subunits carrying SliC (of 180) (subunits per cVLP)", "setting": "[2]", "result": 140}, {"measurement": "coupling efficiency", "setting": "[2]", "result": 77, "unit": "%"}]}
